Tests used:
[1] = target: monkey MSLN full-length protein on HEK293T cells (monkey); assay: FACS, HEK293T-monkey MSLN cells
[2] = target: human MSLN protein endogenously expressed on tumor cells (Hela, OVCAR3) (human) (UniProt Q13421); assay: FACS, OVCAR3 cells, antibody 2 nM
[3] = target: human MSLN protein endogenously expressed on tumor cells (Hela, OVCAR3) (human) (UniProt Q13421); assay: FACS, OVCAR3 cells, antibody 0.00128 nM
[4] = target: human MSLN full-length protein on transfected cells (CHO-K1-hMSLN clones 2C8, 2D11, 2C5; HEK293T-hMSLN clones B8, 2A4, 2A7) (human) (UniProt Q13421); assay: FACS, CHO-K1-hMSLN-2C8 cells, antibody 0.8 nM
Sequence of human MSLN full-length protein on transfected cells (CHO-K1-hMSLN clones 2C8, 2D11, 2C5; HEK293T-hMSLN clones B8, 2A4, 2A7) (human) (Q13421 other isoform, or with tags, fused parts or gaps limits assumed): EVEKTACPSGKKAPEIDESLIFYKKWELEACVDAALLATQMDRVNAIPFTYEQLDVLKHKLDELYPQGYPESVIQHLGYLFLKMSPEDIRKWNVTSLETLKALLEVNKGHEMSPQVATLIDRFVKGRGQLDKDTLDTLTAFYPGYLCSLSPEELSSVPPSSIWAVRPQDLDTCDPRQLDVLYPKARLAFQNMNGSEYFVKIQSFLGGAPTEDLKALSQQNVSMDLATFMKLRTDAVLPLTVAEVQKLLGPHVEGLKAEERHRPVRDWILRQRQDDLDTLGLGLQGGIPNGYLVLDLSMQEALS

[5] = target: human MSLN full-length protein on transfected cells (CHO-K1-hMSLN clones 2C8, 2D11, 2C5; HEK293T-hMSLN clones B8, 2A4, 2A7) (human) (UniProt Q13421); assay: FACS, CHO-K1-hMSLN-2C8 cells, antibody 100 nM
[6] = target: human MSLN full-length protein on transfected cells (CHO-K1-hMSLN clones 2C8, 2D11, 2C5; HEK293T-hMSLN clones B8, 2A4, 2A7) (human) (UniProt Q13421); assay: FACS, CHO-K1-hMSLN-2C8 cells, antibody 0.032 nM
[7] = target: human MSLN full-length protein, recombinant, on CHO-K1 or HEK293T cells (human) (UniProt Q13421); assay: competitive FACS on CHO-K1-human MSLN-2C8 cells vs Biotin-Tab142; competitor at 4 nM
Sequence of human MSLN full-length protein, recombinant, on CHO-K1 or HEK293T cells (human) (Q13421 other isoform, or with tags, fused parts or gaps limits assumed): as above

[8] = target: human MSLN full-length protein, recombinant, on CHO-K1 or HEK293T cells (human) (UniProt Q13421); assay: competitive FACS on CHO-K1-human MSLN-2C8 cells vs Biotin-Tab142; competitor at 0.00256 nM

Sequence of human MSLN protein endogenously expressed on tumor cells (Hela, OVCAR3) (human) (Q13421 other isoform, or with tags, fused parts or gaps): as the sequence (Q13421 other isoform, or with tags, fused parts or gaps limits assumed) above, with P14R counted along it

A Max MFI [1] of 104, an MFI [2] of 255 and an FACS signal (MFI) [3] of 75 were found for hIgG1 (antibody) in this work. For the same substance, the FACS signal (MFI) [4] was 80, the FACS signal (MFI) [5] was 72 and the FACS signal (MFI) [6] was 59. It also gave an MFI of Biotin-Tab142 [7] of 43100 and an MFI of Biotin-Tab142 [8] of 24300.

Source: patent US20240124563A1
